From patent US20210122795A1 (CITY OF HOPE, published 2021)
Ends that are not written are not given here.

B1: mLcn2 (modified lipocalin2, monomeric) (designed binder)
chain: QDSTSDLIPAPPLSKVPLQQNFQDNQFHGKWYVVGLAGNRILRDDQHPMNMYATIYELKEDKSYNVTSVISSHKKCEYTIATFVPGSQPGEFTLGNIKSYGDKTSYLVRVVSTDYNQYAVVFFKLAEDNAEFFAITIYGRTKELASELKENFIRFSKSLGLPENHIVFPVPIDQCIDG
notes: Engineered lipocalin 2; also called monomeric mLCN2
B2: mLcn2-Fc (unmodified, without N-terminal mask) (Fc fusion)
chain: B1 chain
notes: also called dimeric mLCN2-Fc; unmodified mLcn2-Fc; not shown: flexible linker between mLcn2 and Fc; human IgG1 Fc domain
B3: Peptide 12 (chemically synthesized cyclic peptide) (peptide)
peptide: CSVLPPFMC
modifications: also: cyclic peptide, ring type not given here
notes: Immobilized on a CM5 chip in the SPR; also called Pep12
B4: Peptide 16 (chemically synthesized cyclic peptide) (peptide)
peptide: CWSPLPFMC
modifications: also: cyclic peptide, ring type not given here
notes: Immobilized on a CM5 chip in the SPR; also called Pep16

Assays:
[1] = target: T1, CTLA-4-Fc (recombinant bivalent CTLA-4 fused to the human IgG1 Fc) (human, UniProt P16410 36-161, Homodimer through the IgG1 Fc (bivalent); the Fc is left out of the letters.); experiment: SPR; dimeric CTLA-4-Fc immobilized at medium density on a CM5 chip; analyte 3-1000 nM
T1 construct: also called dimeric CTLA-4-Fc; CTLA-4 (in the SEC legends); not shown: human IgG1 Fc and any linker of the CTLA-4-Fc fusion
T1 sequence (P16410 36-161 limits assumed): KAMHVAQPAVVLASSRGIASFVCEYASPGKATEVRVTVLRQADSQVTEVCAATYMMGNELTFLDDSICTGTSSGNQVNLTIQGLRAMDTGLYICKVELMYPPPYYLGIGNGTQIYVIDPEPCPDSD
Procedure: (§1) FIG. 10A: SPR analysis. Dimeric CTLA-4-Fc was immobilized at medium density to a CM5 chip. A range of 3-1000 nM monomeric mLCN2 (top) and 3-300 nM dimeric mLCN2-Fc (bottom) analytes were used for kinetics analyses. […] Concentration of analytes is 1000; 300; 30; and 3 nM.

[2] = target: B4; experiment: SPR; analyte mLcn2 flowed over Peptide16 immobilized on a CM5 chip; analyte mLcn2 flowed over Peptide16 immobilized to a CM5 chip
Description: FIG. 14A: mLCN2 vs. Pep16. Surface plasmon resonance of analyte mLcn2 flowed over ligand Peptide16 immobilized to a CM5 chip. Representative results are shown from three independent experiments.

[3] = target: T1, CTLA-4-Fc (recombinant bivalent CTLA-4 …); experiment: SPR; dimeric CTLA-4-Fc immobilized at medium density on a CM5 chip; analyte 3-300 nM
Procedure: as §1

[4] = target: B3; experiment: SPR; analyte mLcn2-Fc flowed over Peptide12 immobilized on a CM5 chip
Description: FIG. 14B: mLCN2-Fc vs. Pep12. Surface plasmon resonance of analyte mLcn2-Fc flowed over ligand Peptide12 immobilized to a CM5 chip. Representative results are shown from three independent experiments.

[5] = target: B1; experiment: crystal structures of the peptide-mLcn2 complexes

Binder: B1
koff [1]: 0.0002 s⁻¹ | kon [1]: 36000 M⁻¹ s⁻¹ | Kd [2]: 4.6 µM

Binder: B2
kon [3]: 10000 M⁻¹ s⁻¹ | Kd [4]: 3.4 µM

Binder: B3
binding result [5]: binds

Binder: B4
binding result [5]: binds
